The results in this text go back to US20090270318A1.

Changes are numbered by the printed parent chain. Names may count otherwise. “And” between values parts separate entries of the source, which are not always exact repeats. Equal entries are not always repeated.

Usually IC50 stands for the midpoint of a concentration-inhibition curve.

In assay [1] the target is CXCL8 receptors on bovine peripheral blood neutrophils. Kind of assay: 1000 ng/ml biotCXCL8 on medium-treated bovine neutrophils; streptavidin-enzyme and ABTS; ELISA plate reader.
Assay [2] shares this target. Kind of assay: displacement of 20 pM 125I-CXCL8 from 10^6 bovine neutrophils, 45 min on ice.
The target is the same in assay [3]. In words: biotCXCL8 binding inhibition on bovine neutrophils; 10 ng/ml unlabeled CXCL8 2 h at 4 C, wash, then 1 ug/ml biotCXCL8; cell ELISA. For orientation: ELISA stands for enzyme-linked immunosorbent assay.
The target is the same in assay [4]. Kind of assay: cell-based or functional assay.
The target is the same in assay [5]. Kind of assay: displacement of 20 pM 125I-CXCL8 from bovine neutrophils; reference is unlabeled wildtype CXCL8.
For assay [6] the target is unchanged. In words: biotCXCL8 binding inhibition on bovine neutrophils; 10 ng/ml analogue 2 h at 4 C, wash, then 1 ug/ml biotCXCL8; cell ELISA.

In the case of “biotinylated CXCL8 (from UniProt P79255 23-101) (ligand)”, the OD405 in assay [1] lay within 0.5 to 0.6 OD405.

In the case of “bovine CXCL8 (wild type, unlabeled) (from UniProt P79255 23-101) (ligand)”, the half-maximal inhibitory concentration (IC50) in assay [2] worked out at 0.12 nM. Also, in assay [3], the percent of ^biotCXCL8 binding blocked turned out to be 30%.

B1: bovine CXCL8(3-74)K11R/G31P (ligand)
chain: TELRCQCIRTHSTPFHPKFIKELRVIESPPHCENSEIIVKLTNGNEVCLNPKEKWVQKVVQVFVKRAEKQDP
B1: in assay [4], the IC50, inhibition of bovine neutrophil chemotaxis to 1 µg/ml (129 nM) CXCL8 is 0.11 nM; the agonist activity: chemotaxis of bovine neutrophils to 100 ng/ml analogue, as percent of the response to 1 ng/ml CXCL8 was 13.9%; the agonist activity: chemotaxis of bovine neutrophils to 100 ng/ml analogue, as percent of the response to 100 ng/ml CXCL8 was 5.4%; the concentration for complete blocking of bovine neutrophil chemotaxis to 1 µg/ml CXCL8 stood at 10 nM. Further, in assay [4], the concentration for complete inhibition of bovine neutrophil chemotaxis to human CXCL5, CXCL1 or CXCL8 was 3 nM and 20 nM; the concentration reducing bovine neutrophil chemotaxis to 1 ng/ml hCXCL1 to 50% was found to be 0.26 nM; the concentration reducing bovine neutrophil chemotaxis to 1 ng/ml hCXCL5 to 50% came to 0.06 nM; the concentration reducing bovine neutrophil chemotaxis to 10 ng/ml hCXCL8 by 50% stood at 0.04 nM. The molecule also gave a reduction of bovine neutrophil chemotactic response to 1 µg/ml (129 nM) CXCL8 by 12.9 pM analogue in assay [4] of 33%. Further, the IC50 in assay [2] is 0.004 nM. Besides, the fold more effective than wildtype CXCL8 in inhibiting 125I-CXCL8 binding in assay [5] is 100 fold. In addition, the percent of ^biotCXCL8 binding blocked in assay [6] was determined as 95%.

B2: bovine CXCL8(3-74)K11R/P32G (ligand)
chain: B1 chain with P29G, P30G
As for B2, the agonist activity: chemotaxis of bovine neutrophils to 100 ng/ml analogue, as percent of the CXCL8 response in assay [4] was determined as 38.3%. This molecule also came in with a percent of ^biotCXCL8 binding blocked in assay [6] of 48%.
